According to paper PMC6829862:

Molecular target: mCherry–Gβ1γ9 dimer (UniProt P62873)
Assay: FRET or BRET; FLIM-FRET in living transiently transfected HEK 293 cells at 37 °C; donor Citrine in Gα, acceptor mCherry on Gβ1 with the appropriate Gγ; efficiency E = 1 − τda/τd from the short lifetime component τ1 (donor alone 2.7 ± 0.1 ns), analysed only at the plasma membrane; GppNHp added to the culture did not change the signal

Sequence of Citrine–Gαi3 (P08754 whole entry): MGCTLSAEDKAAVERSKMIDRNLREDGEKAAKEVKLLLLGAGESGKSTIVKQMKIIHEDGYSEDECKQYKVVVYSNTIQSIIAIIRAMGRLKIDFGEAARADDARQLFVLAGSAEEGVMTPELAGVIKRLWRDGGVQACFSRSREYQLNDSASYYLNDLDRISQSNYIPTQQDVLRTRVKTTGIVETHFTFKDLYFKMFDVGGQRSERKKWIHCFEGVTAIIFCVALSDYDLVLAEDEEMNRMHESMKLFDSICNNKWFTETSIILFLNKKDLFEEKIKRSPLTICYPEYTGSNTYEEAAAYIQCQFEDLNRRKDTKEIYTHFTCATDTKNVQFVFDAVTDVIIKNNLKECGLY

- FRET efficiency, lower than that of m3 with m4 by: 5%
Substance: Citrine–Gαi3 (from UniProt P08754 1-354) (natural protein)
